# In US20040208873A1:
# Biological target: recombinant human IL-8, 72 aa form (monocyte derived) (human) (UniProt P10145)
# Assay: cell-based or functional assay
# Chain of recombinant human IL-8, 72 aa form (monocyte derived) (human) (P10145 28-99 limits assumed): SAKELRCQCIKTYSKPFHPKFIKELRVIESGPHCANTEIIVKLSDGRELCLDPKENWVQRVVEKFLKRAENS
substance,measurement,value
irrelevant human isotype control antibody (Example 8),"expression level of CD11b on IL-8 stimulated PMN (MFI, flow cytometry)",2400 MFI
same,"expression of CD62L on IL-8 stimulated PMN (MFI, flow cytometry)",150 MFI
